Laboratory results reported in paper PMC2148190 (The Journal of Cell Biology, 1999).

Experiments:
[1] = molecular target: His-tagged human Bcl-xL lacking 24 amino acids at the COOH terminus (human, UniProt Q07817-1 1-209); assay: co-IP
[2] = molecular target: Human Bcl-2 lacking 34 amino acids at the COOH terminus (human, UniProt P10415 1-205); assay: co-IP
Human Bcl-2 lacking 34 amino acids at the COOH terminus, sequence (P10415 1-205): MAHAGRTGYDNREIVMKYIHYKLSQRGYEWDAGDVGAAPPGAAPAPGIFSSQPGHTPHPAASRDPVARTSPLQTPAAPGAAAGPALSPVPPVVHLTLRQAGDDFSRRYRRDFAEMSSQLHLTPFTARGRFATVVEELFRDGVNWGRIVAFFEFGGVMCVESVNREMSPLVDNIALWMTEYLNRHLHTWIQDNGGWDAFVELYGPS

His-tagged human Bcl-xL lacking 24 amino acids at the COOH terminus, sequence (Q07817 1-209): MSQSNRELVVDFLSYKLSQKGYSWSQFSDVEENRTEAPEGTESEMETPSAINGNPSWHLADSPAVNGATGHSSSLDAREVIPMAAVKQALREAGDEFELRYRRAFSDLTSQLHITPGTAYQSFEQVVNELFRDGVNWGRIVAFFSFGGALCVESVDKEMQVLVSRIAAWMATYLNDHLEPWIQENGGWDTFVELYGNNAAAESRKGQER

Binder | binding result [1] | binding result [2]
His-tagged Bid (recombinant wild-type Bid) (natural protein) MDSEVSNGSGLGAEHITDLLVFGFLQSSGCTRQELEVLGRELPVQAYWEADLEDELQTDGSQASRSFNQGRIEPDSESQEEIIHNIARHLAQIGDEMDHNIQPTLVRQLAAQFMNGSLSEEDKRNCLAKALDEVKTAFPRDMENDKAMLIMTMLLAKKVASHAPSLLRDVFHTTVNFINQNLFSYVRNLVRNEMD | binds | binds
BidmIII-3 (G94→ A) (natural protein) MDSEVSNGSGLGAEHITDLLVFGFLQSSGCTRQELEVLGRELPVQAYWEADLEDELQTDGSQASRSFNQGRIEPDSESQEEIIHNIARHLAQIADEMDHNIQPTLVRQLAAQFMNGSLSEEDKRNCLAKALDEVKTAFPRDMENDKAMLIMTMLLAKKVASHAPSLLRDVFHTTVNFINQNLFSYVRNLVRNEMD | binds | binds
